{"source": "patent US20150218594A1", "about": "“CELL-FREE AND MINIMIZED METABOLIC REACTION CASCADES FOR THE PRODUCTION OF CHEMICALS” (CLARIANT PRODUKTE (DEUTSCHLAND) GMBH, priority 2012, published 2015)", "molecules": {"B1": {"name": "S405C: optimized Thermoplasma acidophilum aldehyde dehydrogenase with the mutation of S405C (protein)", "chain": "MDTKLYIDGQWVNSSSGKTVDKYSPVTGQVIGRFEAATRDDVDRAIDAAEDAFWAWNDLGSVERSKIIYRAKELIEKNRAELENIIMEENGKPVKEAKEEVDGVIDQIQYYAEWARKLNGEVVEGTSSHRKIFQYKVPYGIVVALTPWNFPAGMVARKLAPALLTGNTVVLKPSSDTPGSAEWIVRKFVEAGVPKGVLNFITGRGSEIGDYIVEHKKVNLITMTGSTATGQRIMQKASANMAKLILELGGKAPFMVWKDADMDNALKTLLWAKYWNAGQSCIAAERLYVHEDIYDTFMSRFVELSRKLALGDPKNADMGPLINKGALQATSEIVEEAKESGAKILFGGSQPSLSGPYRNGYFFLPTIIGNADQKSKIFQEEIFAPVIGARKISSVEEMYDLANDCKYGLASYLFTKDPNIIFEASERIRFGELYVNMPGPEASQGYHTGFRMTGQAGEGSKYGISEYLKLKNIYVDYSGKPLHINTVRDDLFQSGRPVLGSSHHHHHH", "modifications": "TaALDH-S405C-Chis"}, "B2": {"name": "F34M S405N: optimized Thermoplasma acidophilum aldehyde dehydrogenase with the mutations F34M and S405N (protein)", "chain": "B1 chain with F34M, C405N", "modifications": "TaALDH-F34M-S405N-Chis"}, "B3": {"name": "F34M W271S Y399C S405N: optimized Thermoplasma acidophilum aldehyde dehydrogenase with the mutations F34M, W271S, Y399C and S405N (protein)", "chain": "B1 chain with F34M, W271S, Y399C, C405N", "modifications": "TaALDH-F34M-W271S-Y399C-S405N-Chis"}, "B4": {"name": "F34L S405C: optimized Thermoplasma acidophilum aldehyde dehydrogenase with the mutations F34L and S405C (protein)", "chain": "B1 chain with F34L", "modifications": "TaALDH-F34L-S405C-Chis"}, "B5": {"name": "wildtype (wt): Aldehyde Dehydrogenase ALDH (EC 1.2.1.3), Thermoplasma acidophilum, Seq ID 08, wildtype, non-optimized enzyme (protein)", "chain": "B1 chain with C405S", "modifications": "Aldehyde Dehydrogenase (EC 1.2.1.3), Thermoplasma acidophilum, wildtype enzyme Protein sequence including C-terminal His-Tag"}, "B6": {"name": "F34M W271S S405N: TaALDH variant with the mutations F34M, W271S and S405N; no SEQ ID printed (protein)", "chain": "B1 chain with F34M, W271S, C405N"}, "B7": {"name": "F34L: optimized Thermoplasma acidophilum aldehyde dehydrogenase with the mutation of F34L (protein)", "chain": "B1 chain with F34L, C405S", "modifications": "taALDH-F34L-Chis"}, "B8": {"name": "Y399R: optimized Thermoplasma acidophilum aldehyde dehydrogenase with the mutation of Y399R (protein)", "chain": "B1 chain with Y399R, C405S", "modifications": "TaALDH-Y399R-Chis"}, "B9": {"name": "W271S: optimized Thermoplasma acidophilum aldehyde dehydrogenase with the mutation of W271S (protein)", "chain": "B1 chain with W271S, C405S", "modifications": "TaALDH-W271S-Chis"}}, "note": "Where a chain is given by its changes, count along the chain named. Numbers in names are those of the source."}
{"assay": "Activity in solvents of Ta-ALDH variants (3 % isobutanol)", "type": "biochemical", "settings": "3 % isobutanol, 2 mM NAD, 50° C., pH 7", "method": "(§1) Colonies of E. coli BL21 (DE3) containing Ta-ALDH library were transferred into 96-deepwell plates (Gainer BioOne) containing Zym5052 autoinduction medium (Protein Expression and Purification, 2005. 41(1): p. 207-234). Cultures were grown over night at 37° C., 1000 rpm. Cells were harvested by centrifugation at 5000 g at 2° C. for 2 min and lysed with B-Per® protein extraction reagent (Thermo Fisher Scentific, Rockford, USA). After incubation for 60 min at 50° C., insoluble cell debris and was removed by centrifugation at 5000 g at 20° C. for 30 min. Supernatants containing variants of TaALDH were tested for relative activity under standard conditions: 2 mM NAD, 1 mM D-glyceraldehyde in 50 mM HEPES (pH 7) at 50° C. After 20 min NADH formation was detected spectrophotometrically at 340 nm.\n(§2) Activity in solvents of Ta-ALDH variants was tested under standard assay conditions containing additional solvent. After 20 min NADH formation was detected and compared to relative activity.\n(§3) The values “relative to wt” are the mU/mL values normalized to the wildtype control value.", "units": {"3 % isobutanol, 2 mM NAD (mU/mL)": "mU/mL"}}
{"molecule": "B1", "3 % isobutanol, 2 mM NAD (mU/mL)": 12.65}
{"molecule": "B2", "3 % isobutanol, 2 mM NAD (mU/mL)": 15.62}
{"molecule": "B3", "3 % isobutanol, 2 mM NAD (mU/mL)": 1.3}
{"molecule": "B4", "3 % isobutanol, 2 mM NAD (mU/mL)": 8.17}
{"molecule": "B5", "3 % isobutanol, 2 mM NAD (mU/mL)": 1.60}
{"molecule": "B6", "3 % isobutanol, 2 mM NAD (mU/mL)": 43.86}
{"molecule": "B7", "3 % isobutanol, 2 mM NAD (mU/mL)": 4.08}
{"molecule": "B8", "3 % isobutanol, 2 mM NAD (mU/mL)": 2.16}
{"molecule": "B9", "3 % isobutanol, 2 mM NAD (mU/mL)": 20.8}
{"assay": "Activity in solvents of Ta-ALDH variants (3 % isobutanol)", "type": "biochemical", "settings": "3 % isobutanol, 2 mM NAD; normalized to the wildtype control value", "method": "as §1, §2, §3"}
{"molecule": "B1", "relative to wt": 7.9}
{"molecule": "B2", "relative to wt": 9.8}
{"molecule": "B3", "relative to wt": 0.8}
{"molecule": "B4", "relative to wt": 5.1}
{"molecule": "B5", "relative to wt": 1.0}
{"molecule": "B6", "relative to wt": 27.5}
{"molecule": "B7", "relative to wt": 2.6}
{"molecule": "B8", "relative to wt": 1.4}
{"molecule": "B9", "relative to wt": 13}
{"assay": "Activity in solvents of Ta-ALDH variants (3 % isobutanol)", "type": "biochemical", "settings": "stability in 3 % isobutanol relative to wildtype", "method": "as §1, §2, §3"}
{"molecule": "B1", "Stab. rel to wt": 1.2}
{"molecule": "B2", "Stab. rel to wt": 1.1}
{"molecule": "B3", "Stab. rel to wt": 0.8}
{"molecule": "B4", "Stab. rel to wt": 1.0}
{"molecule": "B5", "Stab. rel to wt": 1.0}
{"molecule": "B6", "Stab. rel to wt": 0.6}
{"molecule": "B7", "Stab. rel to wt": 0.8}
{"molecule": "B8", "Stab. rel to wt": 1}
{"molecule": "B9", "Stab. rel to wt": 0.6}
{"assay": "Screening of TaALDH variants, relative activity under standard conditions (2 mM NAD)", "type": "biochemical", "settings": "1 mM D-glyceraldehyde, 50° C., pH 7, lysate supernatant", "method": "as §1, §3", "units": {"2 mM NAD (mU/mL)": "mU/mL"}}
{"molecule": "B1", "2 mM NAD (mU/mL)": 19.29}
{"molecule": "B2", "2 mM NAD (mU/mL)": 25.87}
{"molecule": "B3", "2 mM NAD (mU/mL)": 3}
{"molecule": "B4", "2 mM NAD (mU/mL)": 15.23}
{"molecule": "B5", "2 mM NAD (mU/mL)": 2.89}
{"molecule": "B6", "2 mM NAD (mU/mL)": 125.38}
{"molecule": "B7", "2 mM NAD (mU/mL)": 9.09}
{"molecule": "B8", "2 mM NAD (mU/mL)": 3.76}
{"molecule": "B9", "2 mM NAD (mU/mL)": 58.35}
{"assay": "Screening of TaALDH variants, relative activity under standard conditions (2 mM NAD)", "type": "biochemical", "settings": "mU/mL values normalized to the wildtype control value", "method": "as §1, §3"}
{"molecule": "B1", "relative to wt": 6.7}
{"molecule": "B2", "relative to wt": 9.0}
{"molecule": "B3", "relative to wt": 1.0}
{"molecule": "B4", "relative to wt": 5.3}
{"molecule": "B5", "relative to wt": 1.0}
{"molecule": "B6", "relative to wt": 43.4}
{"molecule": "B7", "relative to wt": 3.1}
{"molecule": "B8", "relative to wt": 1.3}
{"molecule": "B9", "relative to wt": 20.2}
{"assay": "Cofactor acceptance of Ta-ALDH variants (10 mM NAD)", "type": "biochemical", "settings": "10 mM NAD, 1 mM D-glyceraldehyde, 50° C., pH 7", "method": "as §1\n(§4) Change in cofactor acceptance of Ta-ALDH variants was tested under standard assay conditions but with 10 mM NAD. After 20 min NADH formation was detected and compared to relative activity.\nas §3", "units": {"10 mM NAD (mU/mL)": "mU/mL"}}
{"molecule": "B1", "10 mM NAD (mU/mL)": 66.82}
{"molecule": "B2", "10 mM NAD (mU/mL)": 74.31}
{"molecule": "B3", "10 mM NAD (mU/mL)": 8.08}
{"molecule": "B4", "10 mM NAD (mU/mL)": 46.83}
{"molecule": "B5", "10 mM NAD (mU/mL)": 11.92}
{"molecule": "B6", "10 mM NAD (mU/mL)": 279.58}
{"molecule": "B7", "10 mM NAD (mU/mL)": 31.72}
{"molecule": "B8", "10 mM NAD (mU/mL)": 11.56}
{"molecule": "B9", "10 mM NAD (mU/mL)": 181.89}
{"assay": "Cofactor acceptance of Ta-ALDH variants (10 mM NAD)", "type": "biochemical", "settings": "10 mM NAD; normalized to the wildtype control value", "method": "as §1, §4, §3"}
{"molecule": "B1", "relative to wt": 5.6}
{"molecule": "B2", "relative to wt": 6.2}
{"molecule": "B3", "relative to wt": 0.7}
{"molecule": "B4", "relative to wt": 3.9}
{"molecule": "B5", "relative to wt": 1.0}
{"molecule": "B6", "relative to wt": 23.5}
{"molecule": "B7", "relative to wt": 2.7}
{"molecule": "B8", "relative to wt": 1.0}
{"molecule": "B9", "relative to wt": 15.3}
{"assay": "Cofactor acceptance of Ta-ALDH variants (10 mM NAD)", "type": "biochemical", "settings": "ratio of activity at 10 mM NAD to 2 mM NAD", "method": "as §1, §4, §3"}
{"molecule": "B1", "10 mM NAD /2 mM NAD": 0.8}
{"molecule": "B2", "10 mM NAD /2 mM NAD": 0.7}
{"molecule": "B3", "10 mM NAD /2 mM NAD": 0.7}
{"molecule": "B4", "10 mM NAD /2 mM NAD": 0.7}
{"molecule": "B5", "10 mM NAD /2 mM NAD": 1}
{"molecule": "B6", "10 mM NAD /2 mM NAD": 0.5}
{"molecule": "B7", "10 mM NAD /2 mM NAD": 0.8}
{"molecule": "B8", "10 mM NAD /2 mM NAD": 0.7}
{"molecule": "B9", "10 mM NAD /2 mM NAD": 0.8}
{"assay": "Determination of specific activity of purified TaALDH variants", "type": "biochemical", "settings": "purified enzyme, 1 mM D-Glyceraldehyde, 50° C., pH 7", "source_text": "The Ta-aldh gene was cloned in pCBR-Chis expression vector as described above. Mutations F34L, F34M, Y399C, S405C and S405N were inserted into Ta-aldh gene by Quickchange PCR as described above. For recombinant expression, E. coli BL21 (DE3) was transformed with pCBR-Ta-aldh-Chis, pCBR-Ta-aldh-f34I-s405c-Chis, pCBR-Ta-aldh-f34m-s405n-Chis or pCBR-Ta-aldh-f34m-y399c-s405n-Chis. Each of the four variants was produced using the following protocol:\nLarge amounts of a TaALDH-Variant were produced with fed-batch fermentation in a 40 L Biostat Cplus bioreactor (Sartorius Stedim, Goettingen, Germany). Defined media was supplemented with 30 μg/ml kanamycin. After inoculation cells were grown at 30° C. for 24 h and induced with 0.3 mM IPTG. Enzyme expression was performed at 30° C. for 3 h. One fermentation produced 300 g cells (wet weight). Cells were harvested and lysed with Basic-Z Cell Disruptor (Constant Systems, Northants, UK) in loading buffer (200 mM NaCl; 20 mM Imidazol; 2.5 mM MgCl2; 50 mM NaPi, pH 6.2). After heat treatment at 50° C. for 30 min, cell debris and protein aggregates were separated from soluble fraction by centrifugation at 30,000 g at 20° C. for 30 min (Sorvall RC6+, SS-34 rotor, Thermo Scientific).\nSoluble fraction of His-tagged TaALDH-Variant was further purified by Ni-NTA chromatography using ÄKTA UPC-900 FPLC-system (GE Healthcare, Freiburg, Germany). Supernatant was loaded on HiTrap FF-column and washed with two column volumes of loading buffer. Highly purified and concentrated TaALDH was fractioned after elution in imidazole buffer (200 mM NaCl; 500 mM imidazol; 50 mM NaPi, pH 6.2). Buffer was changed to 20 mM (NH4)HCO3 with HiPrep 26/10 Desalting column and TaALDH was lyophilized with an Alpha 2-4 LD Plus freeze dryer (Martin Christ GmbH, Osterode am Harz, Germany).\nTaALDH activity was determined spectrophotometrically at 50° C. by measuring the rate of cofactor reduction at 340 nm in flat bottom microtiter plates (Grainer BioOne) with a Fluorostar Omega Photometer (BMG Labtech GmbH, Ortenberg, Germany). One unit of activity was defined as reduction of 1 μmol of cofactor per minute.", "units": {"specific activity (U/mg) at 2 mM NAD": "U/mg"}}
{"molecule": "B2", "specific activity (U/mg) at 2 mM NAD": 1.2}
{"molecule": "B4", "specific activity (U/mg) at 2 mM NAD": 1}
{"molecule": "B5", "specific activity (U/mg) at 2 mM NAD": 0.2}
